# Measurements from paper PMC5095173, “Disulfide-activated protein kinase G Iα regulates cardiac diastolic relaxation and fine-tunes the Frank–Starling response” (Nature Communications, 2016).
# What was measured:
# [1] = system: PKGIα (analogue-sensitive C42S/M438G), cGMP-activated; test: Chemical genetic phosphoproteomic screen, cGMP-activated PKGIα C42S/M438G versus unactivated control; type: biochemical, human PKGIα; substrates in rat heart homogenate; settings: PKGIα C42S/M438G + 100 μM cGMP vs basal; 1 h, 30 °C, pH 7.5, rat heart homogenate; label-free LC–MS/MS; n=4; * P<0.05 Dunnett: all values except phospholamban S16
# Excerpt: (§1) We employed a chemical genetic method[18] to identify direct substrates of cGMP-activated PKGIα and disulfide bond-activated PKGIα in heart tissue. This method involves mutation of the ATP binding-site of the kinase of interest so that it can accept a ‘bulky' N6-alkylated ATP analogue for example, N6^−phenylethyl ATP. An oxygen atom on the γ phosphate is also replaced with a sulfur atom—giving an N6-alkylated ATPγS analogue—so that the mutant kinase catalyses the transfer of a thiophosphate group (–PO3S^3−) to its substrates instead of a phosphate. The thiophosphate group is nucleophilic, providing a basis for substrates of the analogue-sensitive kinase to be purified by a ‘covalent capture' protocol. LC–MS/MS allows identification of the substrate and localization of the phosphorylation site. Thiophosphorylated proteins can also be detected with a thiophosphate ester-specific antibody. Analogue-sensitive mutants of PKGIα and PKGIα C42S (which cannot form the activating intermolecular disulfide bond) were generated by mutating Met438 in the ATP-binding domain to Gly. This mutation was chosen based on a previous study where an analogue-sensitive mutant of the catalytic subunit of PKA—which shares sequence homology with PKGIα—was engineered. Detailed protocols are given below.
# (§2) A pCDNA3 expression vector encoding human FLAG-tagged PKGIα (ref. [41]) underwent site-directed mutagenesis to generate constructs for untagged WT, C42S, M438G and C42S/M438G PKGIα. Mutations were introduced using the QuikChange II Site-Directed Mutagenesis Kit (Agilent) according to the manufacturer's instructions. Expression and purification of the PKGIα mutants was performed according to a published method[42] as follows: suspension FreeStyle 293-F cells (ThermoFisher Scientific) were transfected with the appropriate PKGIα construct using the stable cationic polymer polyethyleneimine (PEI) as a transfection reagent. After ∼72 h cells were harvested by centrifugation (400g; room temperature; 15 min), re-suspended in ice cold lysis buffer (25 mM sodium phosphate buffer pH 6.8; 10 mM ethylenediaminetetraacetic acid (EDTA); 100 mM NaCl; 10 mM benzamidine hydrochloride; and 10 mM dithiothreitol (DTT)) and frozen in liquid N2. Cells were lysed by three freeze (liquid N2)-thaw (37 °C) cycles and the lysate was clarified by centrifugation at 140,000g and 4 °C for 30 min. The soluble protein fraction was loaded onto a pre-equilibrated 8-(2-aminoethylamino)adenosine-3′, 5′-cyclic monophosphate column (8-AEA-cAMP agarose; BioLog, Germany) followed by washing with 20 column volumes of lysis buffer. The column was further washed with lysis buffer +3 M NaCl (5 column volumes) and PKGIα was then eluted with lysis buffer +150 mM NaCl and 500 μM cAMP. Removal of cAMP and buffer exchange was achieved by extensive dialysis against 25 mM sodium phosphate buffer pH 6.8, 2 mM EDTA and 100 mM NaCl. For ITC analysis, WT PKGIα was incubated with 10 mM lipoic acid for 2 h on ice to obtain ∼100% disulfide dimer (confirmed by SDS-PAGE). Oxidized WT or C42S PKGIα was further purified by size exclusion chromatography using a HiLoad 16/600 Superdex 200 pg column (GE Healthcare) with 50 mM sodium phosphate buffer pH 7.4 and 100 mM NaCl. Proteins were concentrated using Amicon Ultra centrifugal filter devices (Merck Millipore). DTT was absent in storage buffers so that the activating disulfide bond would not be reduced and so that the PKGIα M438G mutant would be oxidized to disulfide dimer in the presence of air (confirmed by SDS-PAGE). Protein concentration was determined by Pierce BCA assay (ThermoFisher) and enzyme activity was confirmed using the Omnia kinase assay kit (ThermoFisher).
# (§3) Male Wistar rats (9–10 weeks; body weight 300–330 g) were euthanized by intraperitoneal injection of sodium pentobarbitone (200 mg kg^−1) with heparin (500 USP units). […]
# [2] = system: PKGIα (analogue-sensitive M438G), disulfide-activated; test: Chemical genetic phosphoproteomic screen, disulfide-activated PKGIα M438G versus unactivated control; type: biochemical, human PKGIα; substrates in rat heart homogenate; settings: disulfide-activated PKGIα M438G vs basal; 1 h, 30 °C, pH 7.5, rat heart homogenate; label-free LC–MS/MS; n=4; * P<0.05 Dunnett: only phospholamban S16
# Excerpt: as §1, §2, §3
Molecule,"Log2 fold change in phosphorylation, cGMP versus control [1]","Log2 fold change in phosphorylation, Disulfide versus control [2]"
"Histone H1.5: PKGIα substrate, phospho site T35 (protein, UniProt D3ZBN0 2-222, looked up, phosphorylated at T35) Histone H1.5: SETAPAETTAPAPVEKSPAKKKTKKAGAAKRKATGPPVSELITKAVSASKERGGVSLPALKKALAAGGYDVEKNNSRIKLGLKSLVSKGTLVQTKGTGASGSFKLNKKVASGEAKPKAKKTGAAKAKKPTGATPKKPKKTAGAKKTVKKTPKKAKKPAAAGVKKVTKSPKKAKAAAKPKKATKSPARPKAVKSKASKPKVTKPKAAKPKAAKVKKAVSKKK",3.90*,1.43
"Leucine-rich PPR motif-containing protein, mitochondrial: PKGIα substrate, phospho site S656 (protein, UniProt Q5SGE0 78-1392, looked up, phosphorylated at S656) Leucine-rich PPR …: SGSQFDWALMRLDNSVRRTGRITKGLLQKVFESTCRSGSPGSNQALLLLRSCGSLLPELSLAERTEFAHKIWDKLQQLGTVYDVSHYNALLKVYLQNEYRFSPTDFLAKMEGANIQPNRVTYQRLIAAYCSVGDIEGASKILGFMKTRDLPITEAVFSALVTGHARAGDMESAENILTVMKQAGIEPGPDTYLALLNAHAEKGDIDHVKQILEKVEKSDHYFMDRDFLQIIVSFSKAGYPQYVSEILEKITYERRSIPDAMNLILLLVTEKLEDTAFQVLLALPLARDETSSSFGSFFLRHCVTMDTPAEKLIDYCKRLRDAKVHSSSLQFTLHCALQANKTALAKAVMEALRDEGFPIRTHYFWPLLVGHQKTKNVQGIIDILKIMKEMGVDPDQETYINYVFPCFGSVQSARAALQENKCLPKSTTFAQAEVRNEAINGNLQNILSFLESNALPFSFNSLRGSLILGFRRSMNIDLWSKITELLYKDDRYCQKPPGPTEAVGYFLYNLIDSMSDSEVQAKEERLRQYFHQLREMNVKVSENIYKGICNLLDNYHVPELIKDVKVLVDREKIDSRKTSQFTSSDLESTLEKLKAEGHPVGDPLKQLILLLCSEENMQKALEVKAKYESDMVIGGYAALINLCCRHDNAEDALNLKQEFDRLDPSAVLDTAKYVALVKVLGKHGRVQDAINILKEMKEKDVVIKDAAVLSFFHILNGAALRGEIETVKQLHEAIVTLGLAKPSSNISFPLVTVHLEKDDLPAALEASIACHEKYKVLPRIHDVLCKLIEKGETDLIQKAMDFVSQEQGEMSMLYDLFFAFLQTGNYKEAKKIIETPGIRARPTRLQWFCDRCIANNQVETLEKLVELTEKLFECDRDQMYYNLLKLYKISGDWQRADAVWNKMQEENLIPRERTLRLLAGILKTSNQEVPFDVPELWFGDDRSSLSSSSPSAGDTVTEKMLLSDCRLKKSKDAYNIFLKAEKQDVVFSSEAYSTLVGLLLSKDDFTRAMHVKDFAETHIKGFTLNGAASSLLIIAQVRRDYLKVALETLKAALDLEQVPSELAVTRLIQALALQGDVKSIETIQKMVKGLDAIELSRMVFINNIALAQMKNNEIDAAIENIEHMLASENQTVEHQYFGLSYLFRKVIEEQMEPALEKLSIMSERLANQFALYKPVTDLFLQLVDSGKVDEARALLERCGAIAEQTSILSVFCLRTSQKPKKAPVLKTLLELIPELRENDRVYSCSMKSYVADKDVASAKALYEHLTAKNMKLDDLFLKRYASLLKDVGEPVPFTEPPESFGFYIKQLKEARENPS",4.57*,0.77
